{
  "source": "patent US20220119534A1",
  "about": "(DRAGONFLY THERAPEUTICS, published 2022)",
  "binders": {"B1": {"name": "F3'-1602 TriNKET (bispecific antibody, human IgG1, kappa)", "chain": "QLQLQESGPGLVKPSETLSLTCTVSGFSLTNYGLHWIRQPPGKCLEWIGVIWSGGKTDYNPSLKSRVTISKDTSKNQFSLKLSSVQAADTAVYYCAKYDYDDSLDYWGQGTLVTVSSGGGGSGGGGSGGGGSGGGGSDIQMTQSPSSLSASVGDRVTITCHASQNINFWLSWYQQKPGKAPKLLIYEASNLHTGVPSRFSGSGSGTRFTLTISSLQPEDIATYYCQQSHSYPLTFGCGTKLEIKGSDKTHTCPPCPAPELLGGPSVFLFPPKPKDTLMISRTPEVTCVVVDVSHEDPEVKFNWYVDGVEVHNAKTKPREEQYNSTYRVVSVLTVLHQDWLNGKEYKCKVSNKALPAPIEKTISKAKGQPREPRVYTLPPCRDELTKNQVSLTCLVKGFYPSDIAVEWESNGQPENNYKTTPPVLVSDGSFTLYSKLTVDKSRWQQGNVFSCSVMHEALHNHYTQKSLSLSPG", "heavy": "EVQLVESGGGLVKPGGSLRLSCAASGFTFSSYSMNWVRQAPGKGLEWVSSISSSSSYIYYADSVKGRFTISRDNAKNSLYLQMNSLRAEDTAVYYCARGAPIGAAAGWFDPWGQGTLVTVSSASTKGPSVFPLAPSSKSTSGGTAALGCLVKDYFPEPVTVSWNSGALTSGVHTFPAVLQSSGLYSLSSVVTVPSSSLGTQTYICNVNHKPSNTKVDKKVEPKSCDKTHTCPPCPAPELLGGPSVFLFPPKPKDTLMISRTPEVTCVVVDVSHEDPEVKFNWYVDGVEVHNAKTKPREEQYNSTYRVVSVLTVLHQDWLNGKEYKCKVSNKALPAPIEKTISKAKGQPREPQVCTLPPSRDELTENQVSLTCLVKGFYPSDIAVEWESNGQPENNYKTTPPVLDSDGSFFLYSWLTVDKSRWQQGNVFSCSVMHEALHNHYTQKSLSLSPG", "light": "DIQMTQSPSSVSASVGDRVTITCRASQGISSWLAWYQQKPGKAPKLLIYAASSLQSGVPSRFSGSGSGTDFTLTISSLQPEDFATYYCQQGVSFPRTFGGGTKVEIKRTVAAPSVFIFPPSDEQLKSGTASVVCLLNNFYPREAKVQWKVDNALQSGNSQESVTEQDSKDSTYSLSSTLTLSKADYEKHKVYACEVTHQGLSSPVTKSFNRGEC", "notes": "Trispecific F3' format: CLEC12A scFv-Fc paired with NKG2D Fab-Fc; Stressed and control samples of the stability studies are the same molecule; also called AB0237"}},
  "key": {"Human CLEC12A-His": {"target": "T1, Human CLEC12A-His (human, UniProt Q5QGZ9 65-265)", "T1 sequence": "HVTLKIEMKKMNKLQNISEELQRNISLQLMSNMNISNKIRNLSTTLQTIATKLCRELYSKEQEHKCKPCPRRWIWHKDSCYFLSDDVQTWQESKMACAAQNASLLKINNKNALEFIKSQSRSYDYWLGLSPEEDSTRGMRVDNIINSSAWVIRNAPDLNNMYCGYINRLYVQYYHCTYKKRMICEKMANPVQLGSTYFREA", "assay": "cell-based or functional assay"}, "mFc-hNKG2D [1]": {"target": "T2, mFc-hNKG2D (human, UniProt P26718 73-216)", "T2 construct": "extracellular domain; Made in house (Dragonfly Tx); the order of tag and ECD follows the name mFc-hNKG2D; also called mFc-tagged human NKG2D; not shown: mouse Fc tag", "T2 sequence (looked up)": "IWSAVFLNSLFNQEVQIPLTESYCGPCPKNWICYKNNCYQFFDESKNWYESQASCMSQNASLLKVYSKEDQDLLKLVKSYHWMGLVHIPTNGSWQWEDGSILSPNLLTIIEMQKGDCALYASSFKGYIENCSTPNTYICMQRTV", "assay": "SPR Biacore 8K 37 C; mFc-hNKG2D captured on anti-mFc chip, TriNKET as analyte; steady state fit; pH 8.0 control"}, "mFc-hNKG2D [2]": {"target": "T2, mFc-hNKG2D", "assay": "SPR Biacore 8K 37 C; mFc-hNKG2D captured on anti-mFc chip, TriNKET as analyte; 1:1 kinetic fit; after 4 wks 40 C in phosphate/citrate/NaCl pH 7.8, n=2", "method": "Association was monitored for 60 seconds and dissociation was monitored for 60 seconds. Surfaces were regenerated between cycles with three pulses of 10 mM glycine-HCl, pH 1.7 injected for 20 seconds at 100 μL/min. HBS-EP+ (1×) buffer was used throughout the experiment. Data were analyzed using Biacore 8K Insight evaluation software (GE Healthcare)."}, "[3]": {"target": "T3, Human CD16a V158 (FcγRIIIa V158) (human, UniProt P08637 17-208, biotinylated (site not stated))", "T3 construct": "V158 is the allele name in mature numbering; also called hCD16aV; hCD16a V158", "T3 sequence (P08637 17-208 F176V limits assumed)": "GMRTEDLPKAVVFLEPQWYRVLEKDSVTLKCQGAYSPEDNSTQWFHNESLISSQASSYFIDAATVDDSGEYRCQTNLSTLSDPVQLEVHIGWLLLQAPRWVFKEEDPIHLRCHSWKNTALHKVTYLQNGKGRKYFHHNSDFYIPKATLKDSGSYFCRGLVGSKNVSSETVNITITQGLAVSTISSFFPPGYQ", "assay": "SPR; biotinylated CD16a V158 captured on SA chip, TriNKET as analyte; 1:1 kinetic fit; after 4 wks 40 C in HST pH 6.0, n=3"}},
  "data": [
    {"binder": "B1", "values": [
      {"measurement": "EC50 (nM), lysis of CLEC12A+ PL21 cells by KHYG-1-CD16a cells; HST formulation, 40 C, 4 wks", "setting": "Human CLEC12A-His", "result": 1.21, "unit": "nM"},
      {"measurement": "EC50 (nM), lysis of CLEC12A+ PL21 cells by KHYG-1-CD16a cells; control sample", "setting": "Human CLEC12A-His", "result": 0.17, "unit": "nM"},
      {"measurement": "Kd", "setting": "mFc-hNKG2D [1]", "result": 695, "unit": "nM"},
      {"measurement": "Kd", "setting": "mFc-hNKG2D [2]", "result": 869, "unit": "nM"},
      {"measurement": "koff", "setting": "mFc-hNKG2D [2]", "result": 0.133, "unit": "s⁻¹"},
      {"measurement": "kon", "setting": "mFc-hNKG2D [2]", "result": 153000, "unit": "M⁻¹ s⁻¹"},
      {"measurement": "Kd", "setting": "[3]", "result": 201, "unit": "nM"},
      {"measurement": "koff", "setting": "[3]", "result": 0.0165, "unit": "s⁻¹"},
      {"measurement": "kon", "setting": "[3]", "result": 82400, "unit": "M⁻¹ s⁻¹"}
    ]}
  ]
}
